# According to PMC11612176 (The EMBO Journal, 2024):
# Like-named read-outs stand apart in the source and are kept apart here.
# How the values were obtained:
# [1] = target: ComM from L. pneumophila fused to a C-terminal His6-tag (Legionella pneumophila) (UniProt Q5ZXZ0); assay: cryo-EM structure
# [2] = target: ComM from L. pneumophila fused to a C-terminal His6-tag (Legionella pneumophila) (UniProt Q5ZXZ0); assay: cryo-EM structure; remark: listed apart in the source
# [3] = target: T1, ComM (Legionella pneumophila, UniProt A0A3A6V972); conditions: 5 mM AMPPNP, dsDNA/ssDNA hybrid, pH 8.0, 37 °C incubation; active site at interface between adjacent subunits
# T1 construct: gene yifB
# [4] = target: RadA from S. pneumoniae (Strep-tagged, for cryoEM) (Streptococcus pneumoniae) (UniProt Q8DRP0); assay: cryo-EM structure; 7 uM RadA with 10 uM gapped hybrid DNA (combination CD) and 5 mM ATP-gamma-S, 30 min at 37 °C; Hepes 50 mM pH 8.0, NaCl 100 mM
# [5] = target: RadA R301A mutant from S. pneumoniae (Streptococcus pneumoniae) (UniProt Q8DRP0); assay: not stated; oligomeric state of RadA as purified for the biochemical assays
compound,measurement,setting,value
ComM from L. pneumophila fused to a C-terminal His6-tag (from UniProt Q5ZXZ0 1-503) (enzyme),stoichiometry N,[1],6
same,stoichiometry N,[2],12
Nc1ncnc2c1ncn2[C@@H]1O[C@H](COP(=O)(O)OP(=O)(O)NP(=O)(O)O)[C@@H](O)[C@H]1O [AMPPNP],"cryoEM structure, 3.1 Å",[3],"AMPPNP, which is located at the interface between two adjacent subunits"
"RadA from S. pneumoniae (Strep-tagged, for cryoEM) (from UniProt Q8DRP0 1-420) (enzyme)",stoichiometry N,[4],6
RadA R301A mutant from S. pneumoniae (from UniProt Q8DRP0) (enzyme),stoichiometry N,[5],6
